T1: His-IDL1 (Arabidopsis thaliana, UniProt Q9SYQ0 1-463)
T1 construct: IDL1, Arabidopsis thaliana, AT1G20870; detected with antibodies against the His6 tag; also called His-tagged IDL1; source: E. coli, purified; not shown: His6, N-terminal, kept
T1 sequence (looked up): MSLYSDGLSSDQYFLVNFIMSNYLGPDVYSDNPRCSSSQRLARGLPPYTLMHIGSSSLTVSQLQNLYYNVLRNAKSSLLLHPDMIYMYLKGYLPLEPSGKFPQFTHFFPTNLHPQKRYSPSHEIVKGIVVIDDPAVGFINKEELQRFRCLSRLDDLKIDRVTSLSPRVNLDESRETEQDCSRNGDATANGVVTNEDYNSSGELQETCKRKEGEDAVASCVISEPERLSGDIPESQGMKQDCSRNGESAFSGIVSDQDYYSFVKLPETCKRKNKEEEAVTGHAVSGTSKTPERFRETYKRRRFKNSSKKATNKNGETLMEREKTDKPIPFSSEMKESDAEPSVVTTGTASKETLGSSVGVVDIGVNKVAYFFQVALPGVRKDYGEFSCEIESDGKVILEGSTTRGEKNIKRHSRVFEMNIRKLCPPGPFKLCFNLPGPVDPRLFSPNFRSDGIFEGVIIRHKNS

T2: MBP-IDL1 (Arabidopsis thaliana, UniProt Q9SYQ0 1-463)
T2 construct: IDL1, Arabidopsis thaliana, AT1G20870; source: E. coli, fixed to an amylose resin; not shown: MBP, N-terminal, kept
T2 sequence (looked up): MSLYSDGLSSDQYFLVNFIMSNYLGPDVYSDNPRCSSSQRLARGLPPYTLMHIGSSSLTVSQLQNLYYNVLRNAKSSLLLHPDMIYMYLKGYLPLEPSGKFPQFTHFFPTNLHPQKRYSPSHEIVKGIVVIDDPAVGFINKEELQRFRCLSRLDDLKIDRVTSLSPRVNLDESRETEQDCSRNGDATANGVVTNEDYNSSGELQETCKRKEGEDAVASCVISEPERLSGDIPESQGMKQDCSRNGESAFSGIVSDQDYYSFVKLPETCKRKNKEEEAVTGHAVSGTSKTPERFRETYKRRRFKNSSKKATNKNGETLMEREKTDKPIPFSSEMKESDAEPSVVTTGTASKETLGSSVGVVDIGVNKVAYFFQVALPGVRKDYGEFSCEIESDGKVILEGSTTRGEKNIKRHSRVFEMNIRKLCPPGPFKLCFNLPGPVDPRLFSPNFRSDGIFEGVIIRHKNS

B1: MBP-IDM2 (natural protein, Arabidopsis thaliana, UniProt Q8RWL4 1-349, looked up)
chain: MSDTMPEIVSPLVAENSQEQEESVLISLDIEEDKLFLLHFIIGTYFGPDLRKQHHRPKQSAFQIQALKNVVVDELSGSLMKRAELERVYYHIIRNVDPSLVMKPKKLREYFNAKRNDSNRDYPLFVDLFPRKLHPETHVRHKFKFIRSIVFINDPDTSCMREECVARFKRLTGLDSFALSLSVDVTKSNGVVAANEVKVEIDESVEPVKEDNAGTCTSGEESDVAAKPEVKSEAHGGLMVGLMDIGECDDAYLFRVSLPGVKRDERYFSCEVEDNGKVLVRGVTTTGGKRVKRYSHVFEMQTRSLCPPGNFSVSFRLPGPVHPHEFSGNFGTDGILEGVVMKNLQKQTV
notes: IDM2, Arabidopsis thaliana, AT1G54840; source: E. coli, fixed to an amylose resin; not shown: MBP, N-terminal, kept

What was measured:
Experiment in all cases: pull-down; MBP fusion from E. coli fixed to amylose resin, incubated with His-tagged protein purified from E. coli; immunoblot against His6 tag
Details in all cases: both partners purified
His-IDL1 = target: T1, His-IDL1
MBP-IDL1 = target: T2, MBP-IDL1
MBP-IDM2 = target: B1

binding result (His-IDL1) | binding result (MBP-IDL1) | binding result (MBP-IDM2) | Binder
binds |  |  | B1
 | binds | binds | His-MBD7 (natural protein, Arabidopsis thaliana, UniProt Q9FJF4 1-306, looked up, MBD7, Arabidopsis thaliana, AT5G59800; detected with antibodies against the His6 tag; also called His-tagged MBD7; source: E. coli, purified; not shown: His6, N-terminal, kept) MQTRSSSSPSANHRRETQLQIADPTSFCGKIMPGWTVVNRPRSSNNGVVDTYFIEPGTGRQFSSLEAIHRHLAGEVNDRRLTRAGSFFQDKTRVYEGSRTKQDHCGVEYASKGFRLPRGWSVEEVPRKNSHYIDKYYVERKTGKRFRSLVSVERYLRESRNSIEQQLRVLQNRRGHSKDFRLPDGWIVEEKPRRSSSHIDRSYIEPGTGNKFRSMAAVERYLISVGNITLDSVSMVHSERLPLLMNRNGIRFQSEVIDPNPPKKVKWVLTGSGGNMFTANVRGSNVSSLVKHTWSEAFVSLIEDRS
